Experimental data from PMC3578147.

Target: Rev-independent (RI) HIV-1 Gag-CFP (HIV-1)
Test: FRET or BRET

| Substance | FRET efficiency |
| --- | --- |
| YFP-HIV.NC (HIV-1 NC protein fused to YFP) (domain or fragment) | 7.8% |
| HIV.Rev-YFP (HIV-1 Rev fused to YFP) (from UniProt P04618 1-116) (natural protein) | 16.4% |
